Data taken from publication PMC3712912, “Dynactin Subunit p150^Glued Is a Neuron-Specific Anti-Catastrophe Factor” (PLoS Biology, 2013).

What was measured:
[1] = target: tubulin (soluble tubulin dimers, bovine brain) (bovine) (UniProt Q6B856)
[2] = target: tubulin (soluble tubulin dimers, bovine brain) (bovine) (UniProt Q6B856); experiment: SEC; polypeptides incubated at the indicated molar ratio with 30 µM tubulin 10 min on ice; Superdex 200 10/300 GL, BRB20 pH 7.1 with 125 mM KCl and 10 mM imidazole (or increasing KCl, Figure 3C), eluted at 4 °C
[3] = target: Taxol-stabilized microtubules (polymerized bovine brain tubulin) (bovine) (UniProt Q6B856); experiment: co-sedimentation; 0.4 µM dimeric constructs with increasing concentrations of Taxol-stabilized microtubules, 37 °C 20 min, centrifuged at 100 k rpm; supernatant and pellet by SDS-PAGE and densitometry
[4] = target: the molecule itself; experiment: cross-linking; 0.5 µM dimeric constructs in BRB20 with 125 mM NaCl and 1 mM DTT, 0.5% glutaraldehyde on ice for 2 h; SDS-PAGE and colloidal Coomassie staining
[5] = target: T1, Taxol-stabilized microtubules (polymerized bovine brain tubulin) (bovine, UniProt Q6B856 1-445); experiment: co-sedimentation; 0.4 µM dimeric constructs with increasing concentrations of Taxol-stabilized microtubules, 37 °C 20 min, centrifuged at 100 k rpm; supernatant and pellet by SDS-PAGE and densitometry; conditions: both partners purified
[6] = target: T1, Taxol-stabilized microtubules …; experiment: co-sedimentation; 0.1 µM C-terminal GFP-tagged constructs with increasing concentrations of Taxol-stabilized microtubules, 37 °C 20 min, centrifuged; depletion from the supernatant monitored by fluorimetry; conditions: both partners purified

Work on “p150 Nt-GCN4 (human p150Glued amino acids 1–210, GCN4 coiled-coil, linker, C-terminal 6×-His) (from UniProt Q14203-1 1-210) (domain or fragment)” yielded a catastrophe frequency, TIRF elongation assay from GMPCPP seeds, 100–200 nM p150 Nt-GCN4 (fold reduction) [1] of 4 fold, a microtubule polymerization rate, TIRF elongation assay from GMPCPP seeds, 100–200 nM p150 Nt-GCN4 [1] of 2 fold and a stoichiometry N (p150∶tubulin molar ratio) [2] of 1.

In the case of “Δ5–7 Nt-GCN4 (p150Glued amino acids 1–210 deleted for exons 5–7, GCN4 coiled-coil, linker, C-terminal 6×-His) (from UniProt Q14203-1 1-210) (domain or fragment)”, the Kd [3] is reported as 470 nM.

B1: p150 Nt-GCN4 (human p150Glued amino acids 1–210, GCN4 coiled-coil, linker, C-terminal 6×-His) (domain or fragment)
chain: MAQSKRHVYSRTPSGSRMSAEASARPLRVGSRVEVIGKGHRGTVAYVGATLFATGKWVGVILDEAKGKNDGTVQGRKYFTCDEGHGIFVRQSQIQVFEDGADTTSPETPDSSASKVLKREGTDTTAKTSKLRGLKPKKAPTARKTTTRRPKPTRPASTGVAGASSSLGPSGSASAGELSSSEPSTPAQTPLAAPIIPTPVLTSPGAVPPLVMKQLEDKVEELLSKNYHLENEVARLKKLVGEAAAADPPVAT
notes: p150Glued (DCTN1), human, amino acids 1-210, NM_004082.4; holds the CAP-Gly and basic domains; short linker before the C-terminal 6×-His tag; Dimer through the GCN4 coiled-coil that replaces CC1 of p150Glued; vector pET-29a; also called dimeric p150 Nt-GCN4; p150 Nt-GCN4-His; source: Rosetta E. coli, purified (Ni Sepharose, Mono S, Superdex 200); not shown: His6, C-terminal, kept
With B1 the binding result [4] was “binds” and the Kd [5] was 290 nM.

B2: p135 Nt-GCN4 (MMRQ, p150Glued amino acids 139–210, GCN4 coiled-coil, linker, C-terminal 6×-His) (domain or fragment)
chain: MMRQAPTARKTTTRRPKPTRPASTGVAGASSSLGPSGSASAGELSSSEPSTPAQTPLAAPIIPTPVLTSPGAVPPLVMKQLEDKVEELLSKNYHLENEVARLKKLVGEAAAADPPVAT
notes: N-terminal MMRQ replicating the endogenous expressed p135 spliceform of p150Glued (DCTN1); p150Glued (DCTN1), human, amino acids 139-210 of p150Glued, NM_004082.4; lacks the CAP-Gly domain and exon 5; short linker before the C-terminal 6×-His tag; Recapitulates the neuronally enriched p135 splice form; also called p135 dimer; source: Rosetta E. coli, purified (Ni Sepharose, Mono S, Superdex 200); …
B2: binds [4].

B3: Q74P Nt-GCN4 (p150 Nt-GCN4 with the Perry syndrome mutation Q74P) (domain or fragment)
chain: MAQSKRHVYSRTPSGSRMSAEASARPLRVGSRVEVIGKGHRGTVAYVGATLFATGKWVGVILDEAKGKNDGTVPGRKYFTCDEGHGIFVRQSQIQVFEDGADTTSPETPDSSASKVLKREGTDTTAKTSKLRGLKPKKAPTARKTTTRRPKPTRPASTGVAGASSSLGPSGSASAGELSSSEPSTPAQTPLAAPIIPTPVLTSPGAVPPLVMKQLEDKVEELLSKNYHLENEVARLKKLVGEAAAADPPVAT
notes: p150Glued (DCTN1), human, amino acids 1-210, NM_004082.4, with the disease mutation Q74P; short linker before the C-terminal 6×-His tag; also called Q74P p150 Nt-GCN4; source: Rosetta E. coli, purified immediately before experimentation with a final gel filtration step
B3: binds [4].

B4: p150 Nt-GCN4 with C-terminal EGFP-6×-His (domain or fragment)
chain: MAQSKRHVYSRTPSGSRMSAEASARPLRVGSRVEVIGKGHRGTVAYVGATLFATGKWVGVILDEAKGKNDGTVQGRKYFTCDEGHGIFVRQSQIQVFEDGADTTSPETPDSSASKVLKREGTDTTAKTSKLRGLKPKKAPTARKTTTRRPKPTRPASTGVAGASSSLGPSGSASAGELSSSEPSTPAQTPLAAPIIPTPVLTSPGAVPPLVMKQLEDKVEELLSKNYHLENEVARLKKLVGEAAAADPPVAT
notes: p150Glued (DCTN1), human, amino acids 1-210, NM_004082.4; short linker, followed by EGFP-6×-His; also called C-terminal GFP-tagged dimeric construct; source: Rosetta E. coli, purified; not shown: EGFP, C-terminal, kept
B4 gave a Kd [6] of 340 nM.

B5: p150 Nt with C-terminal EGFP-6×-His (domain or fragment, human)
chain: MAQSKRHVYSRTPSGSRMSAEASARPLRVGSRVEVIGKGHRGTVAYVGATLFATGKWVGVILDEAKGKNDGTVQGRKYFTCDEGHGIFVRQSQIQVFEDGADTTSPETPDSSASKVLKREGTDTTAKTSKLRGLKPKKAPTARKTTTRRPKPTRPASTGVAGASSSLGPSGSASAGELSSSEPSTPAQTPLAAPIIPTPVLTSPGAVPPLAAAADPPVAT
notes: p150Glued (DCTN1), human, amino acids 1-210, NM_004082.4; short linker, followed by EGFP-6×-His; also called C-terminal GFP-tagged monomeric construct; source: Rosetta E. coli, purified; not shown: EGFP, C-terminal, kept
Molecule B5 has a Kd [6] of 890 nM.
